{"source": "patent US5820866", "key": {"[1]": {"biological_target": "IA^b -Ea protein bound by added cOVA peptide (murine; chicken) (UniProt P01012)"}, "[2]": {"biological_target": "IA^b -Ea protein bound by added cOVA peptide (murine; chicken) (UniProt P01012)", "remark": "listed apart in the source"}, "[3]": {"biological_target": "IA^b protein (membrane-bound, without covalent peptide)", "test": "inferred from IL-2 production by BO.97.10 with fibroblasts and added cOVA peptide"}, "[4]": {"biological_target": "IA^b protein (membrane-bound, without covalent peptide)", "test": "inferred from IL-2 production by BO.97.10 with M12.C3 cells and added cOVA peptide"}, "[5]": {"biological_target": "IA^b -Ea protein (membrane-bound IA^b with IEα^d peptide (56-73) joined by a linker to IAβ^b) (murine)", "test": "inferred from IL-2 production by BO.97.10 with M12.C3 cells and added cOVA peptide"}, "[6]": {"biological_target": "IE^kd -MCC protein (soluble IE^kd αβ dimer with MCC peptide (91-103) joined by a linker to IEβ^k) (murine)"}, "[7]": {"biological_target": "IA^d -OVA protein (soluble IA^d αβ dimer with cOVA peptide (327-339) joined by a linker to IAβ^d) (murine)"}}}
{"substance": "BO.97.10 T hybridoma cells (TCR)", "values": [{"measurement": "IL-2 production in the presence of cOVA peptide (M12.C3 cells) (fold less IL-2 production)", "setting": "[1]", "value": 10}, {"measurement": "IL-2 production in the presence of cOVA peptide (fibroblasts) (fold less IL-2 production)", "setting": "[2]", "value": 10}]}
{"substance": "IEα^d Peptide (56-73)", "values": [{"measurement": "percent of the IA^b -Ea protein bound by IEα^d peptide", "setting": "[3]", "value": 90, "unit": "%"}, {"measurement": "percent of the IA^b -Ea protein with IEα^d bound to the binding site", "setting": "[4]", "value": 90, "unit": "%"}]}
{"substance": "cOVA Peptide (327-339) (from UniProt P01012)", "values": [{"measurement": "percent of the IA^b -Ea protein bound by cOVA peptide", "setting": "[5]", "value": 10, "unit": "%"}]}
{"substance": "thrombin (enzyme)", "values": [{"measurement": "digestion of the complex as assessed by SDS-PAGE", "setting": "[6]", "value": "> 80", "unit": "%"}, {"measurement": "digestion of the complex as assessed by SDS-PAGE", "setting": "[7]", "value": "> 80", "unit": "%"}]}
